This is an account of results in article PMC2834593, “NMR characterisation of the minimal interacting regions of centrosomal proteins 4.1R and NuMA1: effect of phosphorylation” (BMC Biochemistry, 2010).

This assay addresses T1, 4.1R-CTD64 (last 64 amino acids of the C-terminal domain of human protein 4.1R) (human, 15N labelled).
T1 construct: protein 4.1R, human, last 64 amino acids (part of the C-terminal domain, CTD); Cloned with NdeI into a modified pET15b with a TEV site; also called 4.1R-CTD64 subdomain; 64 amino acids subdomain
T1 chain: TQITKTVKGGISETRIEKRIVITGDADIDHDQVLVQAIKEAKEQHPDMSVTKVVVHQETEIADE
Briefly: NMR titration; 15N labelled 4.1R-CTD64 (0.1 mM, 100 mM Na2HPO4, 90% H2O/10% D2O) titrated with NuMA1 peptide up to 20:1, followed by 1H-15N HSQC, pH 4.9, 25°C; chemical shift perturbation analysis. The note with it: both partners purified.

B1: NuMA1 interacting peptide (N1I), residues 1785-1810 of NuMA1 (peptide)
peptide: Ac-DSGRKTRSARRRTTQIINITMTKKLD-NH2
notes: also called NI1; non-phosphorylated NuMA peptide; source: synthetic peptide, bought: Caslo (Denmark)
As to B1, the binding result is recorded as “binds”.
